{
  "source": "patent US9200265B2",
  "about": "“Anti-cocaine compositions and treatment” (priority 2006, dated 2015)",
  "molecules": {"B1": {"name": "CocE: wild-type cocaine esterase of Rhodococcus sp. MB 1, SEQ ID NO: 1, Accession No. AF173165 (protein)", "chain": "MVDGNYSVASNVMVPMRDGVRLAVDLYRPDADGPVPVLLVRNPYDKFDVFAWSTQSTNWLEFVRDGYAVVIQDTRGLFASEGEFVPHVDDEADAEDTLSWILEQAWCDGNVGMFGVSYLGVTQWQAAVSGVGGLKAIAPSMASADLYRAPWYGPGGALSVEALLGWSALIGTGLITSRSDARPEDAADFVQLAAILNDVAGAASVTPLAEQPLLGRLIPWVIDQVVDHPDNDESWQSISLFERLGGLATPALITAGWYDGFVGESLRTFVAVKDNADARLVVGPWSHSNLTGRNADRKFGIAATYPIQEATTMHKAFFDRHLRGETDALAGVPKVRLFVMGIDEWRDETDWPLPDTAYTPFYLGGSGAANTSTGGGTLSTSISGTESADTYLYDPADPVPSLGGTLLFHNGDNGPADQRPIHDRDDVLCYSTEVLTDPVEVTGTVSARLFVSSSAVDTDFTAKLVDVFPDGRAIALCDGIVRMRYRETLVNPTLIEAGEIYEVAIDMLATSNVFLPGHRIMVQVSSSNFPKYDRNSNTGGVIAREQLEEMCTAVNRIHRGPEHPSHIVLPIIKR", "modifications": "Rhodococcus sp. MB1"}},
  "key": {"[1]": {"experiment": "Thermal stability: preincubation at 37° C., activity measured at RT (25° C.)", "assay_type": "physicochemical", "conditions": "wild type", "protocol": "Thermally stable mutant CocE polypeptides were identified by determining 1/2 of the mutant CocE polypeptides. Briefly, enzymes were preincubated at 37° C. for varying times. Activity measurements were determined at RT (25° C.). Mutant enzymes with 1/2 of greater than 12 minutes (the 1/2 of wild type CocE) were considered thermally stable (See, e.g., FIG. 27 and Table 7)."}, "[2]": {"experiment": "Melting temperature by circular dichroism (near-UV)", "assay_type": "physicochemical", "protocol": "Plasmids containing the mutations were transformed into E. coli BL21 cells and IPTG-induced enzyme was purified on Ni-Agarose. Expressed proteins were then tested for enzymatic activity and for thermostability at 37° C. Enzyme activity was measured using the spectrophotometric assay as described in Example 1. Thermostability was also tested via the spectrophotometric assay by pre-incubation of both wild-type and mutants at 37° C. for various times. Additionally, the nature of the thermo-instability of both the wild-type and T172R mutant was analyzed by polyacrylamide gel electrophoresis under denaturing and non-denaturing conditions. Briefly, mutant and wild-type enzyme at 0.1 mg/ml were incubated at 37° C. for various time-points, cooled to 4° C., mixed with SDS-loading dye containing-mercaptoethanol and run on 10% SDS-PAGE gels (denaturing conditions) or run on native 10% polyacrylamide gels (non-denaturing conditions) at 4° C. Gels were fixed with 10% methanol, 7% acetic acid for 30 minutes, and then stained with Sypro-Ruby protein gel stain (Molecular Probes, Invitrogen) for 3 hours. Protein staining was visualized under UV-light using an AlphaImager™ 3400 (Alpha Innotech). Finally, the exact melting temperature of both the wild-type and T172R mutant were determined by circular dichroism using a JASCO-810 spectropolarimeter driven by a JASCO V500/FP-750 analysis program for Windows. The CD spectra were measured in millidegrees and normalized against PBS buffer."}, "[3]": {"experiment": "Low-UV CD spectra melt with CCA deconvolution", "assay_type": "physicochemical", "conditions": "for #3 formation: accumulation of the fully melted protein; for #1 melt: initial spectra melts, 0.2 mg/ml; for #2 melt: melt of the intermediate state", "protocol": "Low-UV CD spectra data were obtained using an Aviv Spectropolarimeter Mode 400, with the help of Norma Greenfield, UMDNJ, using a 5-cell holder and 0.2 mg/ml protein concentrations. Raw data values obtained were blanked on control PBS, smoothed, and deconvoluted using the CCA algorithm as described by A. Perczel, K. Park, and G. D. Fasman, [Analysis of the circular dichroism spectrum of proteins using the convex constraint algorithm: a practical guide. Analytical Biochemistry 203, 83-93 (1992).] This algorithm finds the minimum number of curves needed to reconstruct a data set, and expresses the percentage each curve contributes to the data set as a function of temperature.\nBelow is presented a low UV CCA denconvolution analysis of CocE WT and 4 mutants, obtained in a single CD spectra melt using a 5-cell holder. The experiment was performed over the period of 8 hours, from 0-80° C.\nTemperature dependent melting was observed between the wavelengths tested (200-250 nm), and the smoothed spectra for each mutant are shown in FIG. 29. […] Dose response analysis was used to approximate the temperature at which the initial spectra melts (1), the formation and melt of the intermediate state (2), and the accumulation of the fully melted protein (3)."}, "[4]": {"tested_on": "CocE antibodies", "experiment": "Direct ELISA specific for CocE antibodies in serum of mice", "assay_type": "in vivo, mouse", "protocol": "CocE can be used in incomplete Freund's adjuvant (IFA) to immunize mice (see Table 4). A direct ELISA specific for CocE antibodies was set up by a standard protocol. CocE was used (1 ug/ml) to coat a 96-well micro-titer plate using a borate buffered saline (1.5 M NaCl, 0.5 M H3BO3, 1.0 M NaOH) to resuspend the cocaine esterase (50 uL/well). The coating plates was left overnight at 4 C. The coating buffer was removed the following morning and the plates blocked with 2% normal goat serum in PBS for 1 hr at 37 C and washed 3 times. Serum from the various groups of mice was serially diluted in 50 μL of PBS in the wells in a range of 10^2 to […] and run in duplicate. The plates were covered and incubated for 30 minutes at 37 C. Subsequently, the plates were washed 3 times and 50 μL/well of Goat anti-mouse IgG peroxidase labeled antibody diluted 1:400. The plates were then washed 3 times and 100 μL peroxidase substrate solution (OPD dissolved in citratelphosphate buffer) was added to each well. After a 5-10 minute incubation (based upon color development in the positive controls) the reaction was stopped using 3M H2SO4 (50 μL/well). […] Positive controls were derived by immunizing Balb/c mice with 100 μg in 100 μL of Cocaine esterase emulsified in incomplete Freund's adjuvant […] by intraperitoneal (IP) injection. In Positive 1 group the serum was isolated from 2 week immunized mice. In Positive 2 group immunized mice were boosted using 100 μg in 100 μL by IP injection at 2 weeks post-primary immunization and the serum collected after an additional week (3 week post-primary)."}, "[5]": {"experiment": "Decay of CocE activity in plasma at 37° C. or after intravenous administration into a mouse", "assay_type": "in vitro ADME", "conditions": "incubation in plasma at 37° C., or after intravenous administration into a mouse"}, "[6]": {"conditions": "cited from earlier work"}, "[7]": {"tested_on": "WIN 35065-2 induced toxicity", "experiment": "WIN 35065-2 induced lethality in rats", "conditions": "1.0 mg CocE i.v. one minute after 560 mg/kg WIN-35065-2 i.p."}, "[8]": {"experiment": "Ex vivo cocaine degradation by CocE in human plasma (HPLC tandem MS)"}, "[9]": {"tested_on": "cocaine-induced lethality", "experiment": "Rodent model of acute cocaine toxicity (convulsions and lethality) in rats", "conditions": "for protection against cocaine-induced lethality: one minute before 180 mg/kg cocaine"}, "[10]": {"conditions": "1.0 mg i.v. one minute after cocaine i.p., rats"}},
  "note": "Like-named read-outs stand apart in the source and are kept apart here.",
  "data": [
    {"molecule": "B1", "values": [
      {"measurement": "1/2 (t1/2) at 37° C.", "setting": "[1]", "result": 12, "unit": "min"},
      {"measurement": "detectable denaturation beginning", "setting": "[2]; near-UV CD", "result": "approximately 30 °C"},
      {"measurement": "melting temperature", "setting": "[2]; near-UV CD (260-320 nm), curve-fitting", "result": 36.15, "unit": "°C"},
      {"measurement": "#3 formation", "setting": "[3]", "result": 59, "unit": "°C"},
      {"measurement": "#3 formation", "setting": "[3]; listed as WT", "result": 59.86, "unit": "°C"},
      {"measurement": "#2 formation", "setting": "[3]; formation of the intermediate state", "result": 34.57, "unit": "°C"},
      {"measurement": "#1 melt", "setting": "[3]", "result": 37, "unit": "°C"},
      {"measurement": "#1 melt", "setting": "[3]; listed as WT", "result": 37.04, "unit": "°C"},
      {"measurement": "#2 melt", "setting": "[3]", "result": 50, "unit": "°C"},
      {"measurement": "#2 melt", "setting": "[3]; listed as WT", "result": 50.98, "unit": "°C"},
      {"measurement": "Titer (log10 dilution +/− SE)", "setting": "[4]; Challenged and Treated (3x), CocE given with cocaine", "result": "3.33 +/− 0.333"},
      {"measurement": "Titer (log10 dilution +/− SE)", "setting": "[4]; Challenged and Treated (4x), CocE given with cocaine", "result": "3.5 +/− 0.5"},
      {"measurement": "antibody titers", "setting": "[4]; CocE i.v. during cocaine challenges", "result": "detectable but relatively low titers"},
      {"measurement": "antibody titer", "setting": "[4]; CocE/IFA with an additional boost", "result": "10^6"},
      {"measurement": "Titer (log10 dilution +/− SE)", "setting": "[4]; Positive 1 (n = 3) 2 weeks, Immunized (IFA/IP)", "result": 5},
      {"measurement": "Titer (log10 dilution +/− SE)", "setting": "[4]; Positive 2 (n = 3) 3 weeks, Immunized/Boost (IFA/IP)", "result": 6},
      {"measurement": "antibody titer", "setting": "[4]; immunized once with CocE/IFA", "result": "10^5"},
      {"measurement": "decay of CocE activity", "setting": "[5]", "result": "> 50", "unit": "%"},
      {"measurement": "Kcat", "setting": "[6]; against (-) cocaine", "result": 7.8, "unit": "s⁻¹"},
      {"measurement": "Km", "setting": "[6]; against (-) cocaine", "result": 0.64, "unit": "µM"},
      {"measurement": "Km", "setting": "[6]; purified enzyme, cocaine", "result": 0.64, "unit": "µM"},
      {"measurement": "kcal (Michaelis-Menten kinetics)", "setting": "[6]; purified enzyme, cocaine", "result": 7.2, "unit": "s⁻¹"},
      {"measurement": "lethal effect of WIN 35065-2 under treatment with CocE", "setting": "[7]", "result": "not overcome"},
      {"measurement": "decrease of cocaine levels compared with vehicle-treated plasma", "setting": "[8]; human plasma 37° C., 300 μM cocaine, 0.05 mg/ml CocE, within 1 min", "result": "at least 100 fold"},
      {"measurement": "cocaine level after esterase", "setting": "[8]; human plasma 37° C., 300 μM cocaine, 2-minute timepoint", "result": "below 1 microM"},
      {"measurement": "cocaine concentration after esterase", "setting": "[8]; human plasma 37° C., 300 μM cocaine, within 1 min", "result": "approximately 2 μM"},
      {"measurement": "cocaine concentrations in serum metabolized", "setting": "[8]; in less than one minute (FIG. 15)", "result": 150, "unit": "fold"},
      {"measurement": "protection against cocaine-induced lethality", "setting": "[9]; 0.1 mg", "result": "no protection"},
      {"measurement": "lethality", "setting": "[9]; 0.32 mg i.v. one minute after 1 g/kg cocaine i.p., rats", "result": 100, "unit": "%"},
      {"measurement": "rats saved", "setting": "[9]; 1 mg CocE 1 minute before cocaine (100 mg/kg)", "result": 100, "unit": "%"},
      {"measurement": "rats survived", "setting": "[9]; 1 mg CocE 30 minutes before cocaine (100 mg/kg)", "result": 66, "unit": "%"},
      {"measurement": "protective effects", "setting": "[9]; 1 mg CocE 100 min prior to cocaine", "result": "eliminated"},
      {"measurement": "rats survived", "setting": "[9]; 1 mg CocE '1 minutes' before cocaine as printed (100 mg/kg)", "result": 32, "unit": "%"},
      {"measurement": "time after the LD100 dose of cocaine at which the enzyme provided protection", "setting": "[9]; 1 mg CocE, 100 mg/kg cocaine", "result": "up to 6 minutes"},
      {"measurement": "cocaine dose required to surmount the protective properties", "setting": "[9]; [10]", "result": 1000, "unit": "mg/kg"},
      {"measurement": "shift in the cocaine-toxicity dose effect curve", "setting": "[9]; [10]", "result": "ten-fold shift"},
      {"measurement": "protection against cocaine-induced lethality", "setting": "[9]; 1 mg", "result": 100, "unit": "%"},
      {"measurement": "duration of anti-cocaine effect", "setting": "[9]; preliminary studies in rats", "result": "more than 30 minutes"}
    ]}
  ]
}
